Assay results: PMC12093266 (2025)

B1: TrnC (enzyme)
chain: MSKKRLSMMPFKTDKFSYALDGNTGRVIVADKPTLYIISHFHKFEKEELLKKTKGKFAELHQDYLTTYNYVSSLINMGMFYLSEKEDSDSPIDSKELAINSNQSQLILILTEKCNLRCEYCIYNDKYPKEMGYSDEEMDFETAKKAVDMYYELHMERVKRGHKRFPVITMYGGEPLLKFDLIKKVMEYAKGLMPDTLFYTTTNGTLLSEKMMDYFINNRIIITFSIDGFKENHDRNRVFVNGMPTFERAFKNIKRLQEKKKEQNIEQIISFNCCFDQYTDVYKVAKFFEEHYDLFNPFFVLYNQINPFDTLYFDWCDEQVKTGKWNFDKNNFKNAMQKIEHELYEAETCDDHFQQVAGPLVMKDFVLSIRNKDGQQQITRNSCIPTSKIAVSPDGTLTLCEKMCKKYPIGTVEKGLDWKAVDGVTEKLVRHFNSDSCKYCPIRTMCEACFMFLDENGRIKPSFCKSKKMAVKKNLESYFAKKEKGFDVMKVYNHTSDLDSVKEMVK
modifications: fluorescently labeled with RED-NHS (in the MST experiments where TrnC is the labelled partner)

Tests used:
Assay in all cases: MST
[1] = target: T1, TrnD (Bacillus thuringiensis, fluorescently labeled (in the MST of Fig. 5D only))
T1 chain: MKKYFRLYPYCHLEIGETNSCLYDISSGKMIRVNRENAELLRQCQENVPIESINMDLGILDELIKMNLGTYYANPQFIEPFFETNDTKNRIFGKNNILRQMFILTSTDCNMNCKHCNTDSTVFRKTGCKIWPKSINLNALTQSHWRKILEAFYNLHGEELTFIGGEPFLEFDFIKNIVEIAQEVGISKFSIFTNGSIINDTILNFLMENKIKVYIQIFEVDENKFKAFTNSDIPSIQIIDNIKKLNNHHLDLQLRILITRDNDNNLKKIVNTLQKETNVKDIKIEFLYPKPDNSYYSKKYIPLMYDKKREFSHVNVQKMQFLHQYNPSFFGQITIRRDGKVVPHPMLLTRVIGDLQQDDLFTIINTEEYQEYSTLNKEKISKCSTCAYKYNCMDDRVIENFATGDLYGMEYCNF

[2] = target: B1
[3] = target: E79A mutant of TrnD (Bacillus thuringiensis)

| Binder | Kd [1] | Kd [2] | Kd [3] |
| --- | --- | --- | --- |
| MEVMNNALITKVDEEIGGNAACVIGCIGSCVISEGIGSLVGTAFTLG [TrnA] | 4430 nM | 5410 nM |  |
| MEVLNKQNVNIIPESEEVGGWVACVGACGTVCLASGGVGTEFAAASYFL [TrnB] | 2110 nM | 2470 nM |  |
| B1 |  |  | 590 nM |
